Reference: patent US20140287419A1, “Compositions Having Dicamba Decarboxylase Activity and Methods of Use” (priority 2013, published 2014)
“Also recorded” adds a separate entry of the source.

Legend:
[1] = 14C assay with IPTG-induced recombinant E. coli cells (14CO2 capture from [14C]-carboxyl-labeled dicamba); details: for Dicamba Decarboxylase Activity: IPTG-induced recombinant E. coli cells, [14C]-carboxyl-labeled dicamba, 14CO2 capture; for Enzymatic Detection level: dicamba decarboxylation activity of the protein of the given SEQ ID NO
[2] = Dicamba decarboxylation activity of computationally designed protein variants; details: native protein or designed variant versus parent

B1: 32 (protein)
chain: MARIIAIEEHFLDLDIARASRPEAERLSPAFAAAYGAGQGYNYSPAPEVLLDLEEGRVADMDAHGISMQVLSSLSTQQLPADVAVELVRKVNDRAAAAVAARPDRFAAFAALPTTVPEAAADELDRAVGELGFVGSMINGRTGDAFLDAPRFDAVLRRSAELRVPVYLHPGVPPVETSRSNYEGGLDPIVTARLQTSAWGWHVETGIHFLHLVLAGVFDRYPDLQVILGHWGEMVPFFLERIEEALPQQITHLDRPVGAYFRENAHITPSGMFSQAQLQFCVETVGIERIMFSVDYPFLGNDGAEAFLRQANLPPLATEKIAHLNAERLLALPS
modifications: Streptomyces violaceusniger
- Dicamba Decarboxylase Activity [1]: High
- Enzymatic Detection level [1]: High

B2: SEQ ID NO:95: Alpha-Amino-Beta-Carboxymuconate-Epsilon-Semialdehyde-Decarboxylase, Pseudomonas fluorescens (protein, listed as Pseudomonas fluorescens)
chain: MAKKPRIDMHSHFFPRISEQEAAKFDANHAPWLQVSAKGDTGSIMMGKNNFRPVYQALWDPAFRIEEMDAQGVDVQVTCATPVMFGYTWEANKAAQWAERMNDFALEFAAHNPQRIKVLAQVPLQDLDLACKEASRAVAAGHLGIQIGNHLGDKDLDDATLEAFLTHCANEDIPILVHPWDMMGGQRMKKWMLPWLVAMPAETQLAILSLILSGAFERIPKSLKICFGHGGGSFAFLLGRVDNAWRHRDIVREDCPRPPSEYVDRFFVDSAVFNPGALELLVSVMGEDRVMLGSDYPFPLGEQKIGGLVLSSNLGESAKDKIISGNASKFFNINV
- Dicamba Decarboxylase Activity [2]: not active for dicamba decarboxylation; also recorded: Neither of the native proteins have dicamba decarboxylase activity

B3: 30 (protein)
chain: MARGKIALEEHVSTPENNRLWDSTGEANRNGSEYMQDVERRLLDRSIQLEEMAQRNIDHVILSLTSPGAQSILDKAKAVSFARDTNDFIVDNYVKPNPDKFSAFATLALQNPEAAAEELERAVKKLGMKGALINGYTNVKDSEHGLYLDDESMLVFWDKVNELNVPVYLHPREPLEGPARGIYTGYESLIGSAWGFAQETAVHAIRLMMSGLFDRYPNLNLVLGHLGEGLVHMLPRTQHRLYRQRFGCGLGKAEKPLMHYLQNNFIVTTSGHFNTHSLNNAIEVMGADRVMFSVDYPYEDIHQACDWFDPLEMDEGLKEKIAWGNASRVFNIK
modifications: Enterobacter aerogenes
- Dicamba Decarboxylase Activity [1]: High
- Enzymatic Detection level [1]: High

B4: SEQ ID NO: 116 (protein)
chain: MAQGKVALEEHFAIPETLQDAAGFVPGDYWKELQHRLLDIQDRRVRLMDEHGIETMILSLNAPAVQAIADSTRANETARRANDFLAEQVAKQPTRFRGFAALPMQDPELAARELERCVKELGFVGALVNGFSQDNRSAVPLYYDMAQYWPFWETVQALDVPFYLHPRNPLPSDARIYDGHAWLLGPTWAFGQETAVHALRLMGSGLFDKYPALKIILGHMGEGLPYSMWRIDHRNAWIKTTPKYPAKRKIVDYFNENFYLTTSGNFRTQTLIDAILEIGADRILFSTDWPFENIDHAADWFENTSISEADRKKIGWGNAQNLFKLNR
modifications: Dicamba decarboxylase variant clone DC.30.007
- Dicamba Decarboxylase Activity [2]: improved dicamba decarboxylase activity

B5: 29 (protein, listed as Pseudovibrio sp.)
chain: MAGRRDFLRKSVAAGVGLTAAAQLSAGGAQATVPDTSNIPLITLEEHFTTPELQSKNTSGDKRLFSGGGSRPELLDVGAGRIADMDEAGIDIQVLSTVTPGASKITGAEGVEFTRKFNTWIAEEVIAAYPNRFRAFATLPLSSPEAAADELERSVREYGFVGTMTYGPIDGKFLDHADYAPLLARAEALGVPIYIHPNWPSPTAMQAYYDGLGDDLTSRILSGPGYGWHQEIAVQCLRLIVGGVFDRFPNLQIVVGHMGEGLPFYYWRVGEDLDRIAQKRLQKPVQQYFHDNLWITTSAFFRDELLNLALATMGEDRVMFSVDYPMASAKVGADWLRAADIPLATKEKIGSKNAMKLLGIDKI
- Dicamba Decarboxylase Activity [1]: No
- Enzymatic Detection level [1]: No

B6: 27 (protein, listed as Aspergillus oryzae)
chain: MALGKIALEEAFALPRFEEKTRWWASLFSTDAETHVKEITDINKIRIEHADKHGVGYQILSYTAPGVQDIWDPVEAQALAVEINDYIAEQVRVNPDRFGAFATLSMHNPKEAADELRRCVEKYGFKGALVNDTQRAGPDGDDMIFYDNADWDIFWQTCTELDVPFYMHPRNPTGTIYEKLWADRKWLVGPPLSFAHGVSLHVLGMVTNGVFDRHPKLQIIMGHLGEHVPFDMWRINHWFEDRKKLLGLAETCKKTIRDYFAENIWITTSGHFSTTTLNFCMAEVGSDRILFSIDYPFETFSDACEWFDNAELNGTDRLKIGRENAKKLFKLDSYKDSSA
- Dicamba Decarboxylase Activity [1]: No
- Enzymatic Detection level [1]: No

B7: 24 (protein)
chain: MALGKVVLEEAYERPNMKEKSNHEAGLYIAPNDRPRYMRQINDINQERLKLADAHGVGYTIISLTVPGIQGIFDKTEAERVATETNNWAAEQIKNHRDRLGAFACLSMHDPAQAANELRRCVQELGFHGALLCSFQHAGPDGETYLFYDQPKYDVFWKALTELDVPLYIHPAAPTGSILERLYAQRPALIGPPLSFANDVSLHTLGIISNGVFDRFPNLKIIIGHLGEHIPFDFWRIDHWFRDVKKPIADEEGRVMAQKSLYHYFKHNIWLTTSGHFSTPTLKYVVNEIGVDRVLFSVDYPYETTESGCNWWDHDKDAIVEAVGGVDNYYAIGRENAKKLLRLDKFHDSDAR
modifications: Aspergillus niger
- Dicamba Decarboxylase Activity [1]: Low
- Enzymatic Detection level [1]: Low

B8: 2 (protein, listed as Serratia sp.)
chain: MAKIICLEEHTLDKALVMASMPAALEQAPFLSDWGKTVTDGNLPDRSRPQIEKNDLINIKGADIGRGRLDDMDVAGITMQVLSVGGFPHLISAAEGVDLNRAANDRLADAVNAHPDRFAAFATLPWAQPDSAEKELERAVKELGFKGALLNGRPSTHFLDHPDYDGLLARFNALGVPLYLHPGLPVRSVQQAYYGGFSDEVTARLSMFGWGWHHEAGIHLLRLILSGAFDKYPNLQVISGHWGEMLPFWLQRLDDSLPQAATGLRRTIAQTFKEQVYVTPSGMLTLPHFQFIYALLGAERIIFSVDYPYQTLDGVKAFIQSLPVPEEAKEAIAFRNAERLLGLTS
- Dicamba Decarboxylase Activity [1]: High
- Enzymatic Detection level [1]: High

B9: 26 (protein, listed as Variovorax paradoxus)
chain: MATHMAPMKNKIALEEHFAIDLTIADSQVYARPEVWQGLKSNLLDFEQQRLEKMDEWGTEFSILSLNSPAVQGIPDAKRAIEVAQRANDVLAEQVKRHPTRFGGFAALPMQDPEASARELERCVNQLGFHGFLVNGFSQVGDENIVVYYDDARFNDFWTAAAALKKPFYMHPRDPLLAREPIYDGAHWLTGPTWAFAMETAIHALRLMSSGMFDRHPALQMILGHFGEGIPFNIWRVDHILRKGRRGMPCDKEIGEYLRSNVHITTSGNFRTPTLLSTMLEVGSDRIMYSVDYPFEKHEDAARWFDTCEISENDRQKIGRDNARKLFGLK
- Dicamba Decarboxylase Activity [1]: High
- Enzymatic Detection level [1]: High

B10: 25 (protein, listed as Acidovorax avenae)
chain: MAQGKIGLEEHFAIPETLQDSAGFVPGDYWKELSLRLLDIHERRLREMDENGMEMMILSLNAPAVQAIPDTKKAVEIAVRANDFLAEQVARRPDRFQAFAALPMQDPDLATRELERCMQDLGFRGALVNGFSQVGTPENVVYYDAPQYGDFWAAVERLDAPFYLHPRNPIASWAQIYQGHPWLMGPTWAFAQETAVHALRLMASGLFDRHPGLRIILGHLGEGLPYNMWRVDHRNAWVDMPKGYPAKRKLCDYFHENFYLTTSGNFRTQTLIDALLEVGADRILFSTDWPFENVDHAAHWFDDAAISEADRLKIGRTNALSLFKLPQG
- Dicamba Decarboxylase Activity [1]: Low
- Enzymatic Detection level [1]: Low

B11: SEQ ID NO:100: 4-Oxalomesaconate hydratase, Reinekea blandensis MED297 (protein, listed as Reinekea blandensis)
chain: MAIIDCHGHYTTTPKGVEDYRNAQKAAVAKDPSFKGEKGQVVVSDDEIRESIENNQLKMQRERGTDLTIFSPRASWMGHHIGNEYTSQFWTEHQNDLIRRVCDLFPKNFAPVAQLPQSPGVDPAKSVPEIVRTVEQMGFIGINLNPDPSGGYWKDTSLADRAFYPIYEKMVEYDIPAMIHVSAACNDCFHTTGSHYLGADTTGFQQLIMSDVFKDFPSLKIIIPHGGGAVPYHWGRFRGLMQDQGYAPLEESALKNIYFDTCVYHQRGIDLLLDIVPTQNILFASEMIGAVRGIDPETGHNFDDTKRYIDNNTALNAEEKAMIFEGNARRVFSRLKTD
- Dicamba Decarboxylase Activity [2]: Neither of the native proteins have dicamba decarboxylase activity

B12: 31 (protein, listed as Agrobacterium sp.)
chain: MAQGKVALEEHFAIPETLQDSAGFVPGDYWKELQHRLLDIQDTRLKLMDAHGIETMILSLNAPAVQAIPDKTKAIEIARRANDVLAEECAKRPDRFLAFAALPLQDPDAATEELQRCVNDLGFVGALVNGFSQEGDGQTPLYYDLPQYRPFWGEVEKLDVPFYLHPRNPLPQDSRIYDGHPWLLGPTWAFAQETAVHALRLMASGLFDEHPRLNIILGHMGEGLPYMMWRIDHRNAWVKLPPRYPAKRRFMDYFNENFHITTSGNFRTQTLIDAILEIGADRILFSTDWPFENIDHASDWFNATSIAEADRVKIGRTNARRLFKLDGA
- Dicamba Decarboxylase Activity [1]: High
- Enzymatic Detection level [1]: High

B13: 28 (protein, listed as Sphingomonas paucimobilis)
chain: MARLIATEEAVTFQPVVDALRAHSRTDDASLDMILVRDVYGDEPARPAMIGRLSDVTGERLAEMDSNGVDMHLLSLTAPGVQMFDAETGTRLARIANDLMAQTVAANPTRFAGLGTFAPQDPASAAREIERVATQLRLNGLVINSHTNDLYYDDPFFHPVFEAIEASGLALYIHPRAPSKQIDRAFRDYGMNSAIWGYGIETSTNAVRMILSGLFDRFPRLKIVLGHMGEAIPFWLWRLDYMHGNATTFGGAPKLKLKPSEYFRRNFAITTSGVESHAALRYSIEVLGPENVMWAIDYPYQPMAPAVQFIRTAPIPEDVKAMVAGGNAARIFRIT
- Dicamba Decarboxylase Activity [1]: High
- Enzymatic Detection level [1]: High
